# B1: HDV Ribozyme (parent)
# chain: GGCCGGCAUGGUCCCAGCCUCCUCGCUGGCGCCGGCUGGGCAACAUUCCGAGGGGACCGUCCCCUCGGUAAUGGCGAAUGGGACCCA
# Variants of: B1
# Test: self-cleavage, relative activity (ratio to wild type); higher = more cleavage; co-transcriptional
row,Variant,self-cleavage
1,G31C C85A,0.317
2,G31C C85U,0.299
3,G31U G67C,0.245
4,G31U G81A,0.162
5,G31U G81C,0.208
6,C32A C66G,0.213
7,C32A C66A,0.181
8,G31A A43G,0.0386
9,G31A A43C,0.106
10,G31A C61U,0.442
11,G31C A45C,0.104
12,G31C A45G,0.293
13,C32A G53U,0.214
14,C32A G53C,0.0923
15,G31A A71C,0.251
16,G31A A71G,0.432
17,G31A A71U,0.447
18,G31C A87G,0.226
19,G31C A87C,0.531
20,C32A C58U,0.208
21,C32A C58G,0
22,C32A C58A,0.208
23,C32A C63A,0.232
24,C32A C63G,0.095

row,Variant,self-cleavage
1,G31U G40C,0.0519
2,G31A G55U,0.347
3,G31C C62U,0.386
4,G31C G35A,0.16
5,G31A G59C,0.348
6,G31U C44U,0.156
7,G31U C44A,0.0707
8,G31A A56G,0.369
9,G31U A45U,0.175
10,G31U C63U,0.41
11,G31U C63G,0.483
12,G31U C63A,0.468
13,G31A G53U,0.346
14,G31A G53C,0.305
15,G31C C86A,0.312
16,G31C C86U,0.295
17,G31C A78U,0.148
18,G31C G40C,0.0346
19,G31C G40U,0.229
20,G31A C36A,0.117
21,G31A C36G,0.233
22,G31U U47A,0.406
23,G31A G54U,0.197
24,G31A G54A,0.295

row,Variant,self-cleavage
1,G31A G54C,0.254
2,G31C G74U,0.143
3,G31C G74C,0.106
4,G31A C85U,0.404
5,G31A C85A,0.415
6,G31U C57G,0.439
7,G31A G80C,0.185
8,G31A G80A,0.103
9,G31U C62G,0.19
10,G31U C62U,0.404
11,G31U U72G,0.128
12,G31U U72A,0.141
13,G31U C32U,0.115
14,G31U C32G,0.0978
15,C32A C75G,0.285
16,C32A C75U,0.0791
17,G31A C57U,0.421
18,G31A G82A,0.166
19,G31A G82C,0.146
20,G31C G52C,0.277
21,G31A C49U,0.404
22,G31C A83U,0.173
23,G31C A83G,0.219
24,C32A U47A,0.322

row,Variant,self-cleavage
1,C32A A51C,0.244
2,C32A A51G,0.162
3,G31U C58U,0.571
4,G31U C58G,0.282
5,C32A G76C,0.192
6,C32A G76U,0.302
7,C32A G76A,0.214
8,G31U G52A,0.431
9,G31C A42U,0.0707
10,G31C A42C,0.128
11,C32A C33A,0.129
12,C32A C33G,0.0405
13,G31U C85U,0.441
14,G31U C85A,0.288
15,G31C C61A,0.332
16,G31A C86G,0.573
17,G31C U46C,0.178
18,G31U G73A,0.0627
19,G31U G73U,0.171
20,G31U G73C,0
21,G31U C86A,0.394
22,G31U C86G,0.451
23,G31C G34A,0.0963
24,G31U C49A,0.451

row,Variant,self-cleavage
1,C32A C48A,0.116
2,C32A G40U,0.22
3,C32A G40C,0.134
4,C32A G35A,0.122
5,C32A G73A,0.138
6,C32A G73C,0.0906
7,C32A G73U,0.0959
8,C32A G55U,0.219
9,C32A G55A,0.145
10,C32A G55C,0.133
11,C32A A56G,0.252
12,C32A A56C,0.293
13,G31A C84U,0.337
14,G31A C84A,0.326
15,G31A A51C,0.396
16,G31A A51G,0.554
17,G31A A51U,0.283
18,G31C G55U,0.338
19,G31C G55A,0.546
20,C32A A78G,0.113
21,C32A A78C,0.0665
22,C32A G80U,0.0472
23,C32A G80C,0.161
24,C32A G80A,0.183

row,Variant,self-cleavage
1,G31U C33G,0.0639
2,G31U C33U,0.125
3,G31U C33A,0.0231
4,G31C G81U,0.086
5,G31C U37C,0.0707
6,G31U A70U,0.365
7,G31U G50A,0.674
8,G31A C33U,0.359
9,G31A C33G,0
10,G31A C33A,0.0744
11,C32A A70C,0.101
12,G31U U69C,0.396
13,G31U U69G,0.386
14,C32A G74A,0.148
15,G31U G59U,0.617
16,G31U G59A,0.546
17,C32A U37A,0.0627
18,C32A U37G,0.166
19,G31A U60C,0.32
20,G31U G54U,0.369
21,G31U G54A,0.403
22,G31U G54C,0.197
23,G31U U65A,0.318
24,G31U U65G,0.383

row,Variant,self-cleavage
1,C32A G50U,0.178
2,G31A G38C,0.142
3,G31A C32G,0.198
4,G31A C32A,0.0941
5,C32A G34A,0.032
6,C32A G34C,0.208
7,C32A G34U,0.0791
8,G31A,0.503
9,G31U,0.47
10,G31C,0.363
11,C32A C86A,0.356
12,G31U G35U,0.0443
13,G31A G40C,0.144
14,G31A G39U,0.0898
15,G31A G39A,0.257
16,G31U G82A,0.185
17,G31U G82U,0.0378
18,G31A G74A,0.132
19,G31U C48A,0.401
20,G31C C48U,0.475
21,G31U G39U,0.285
22,G31C C84A,0.443
23,G31C A77C,0.225
24,G31A A78C,0.169

row,Variant,self-cleavage
1,G31A A78U,0.175
2,C32A A83U,0
3,G31U A87G,0.323
4,G31U A87C,0.358
5,G31U A71U,0.181
6,G31U C64U,0.475
7,G31U C64G,0.514
8,G31C G82A,0.0563
9,G31A C41G,0.106
10,G31A C41A,0.273
11,G31A C41U,0.269
12,G31U U46C,0.306
13,G31U G80A,0.0519
14,G31U G80U,0.0675
15,G31C C32U,0.0723
16,G31C C32G,0.0396
17,G31C C32A,0.0875
18,C32A G68A,0.185
19,G31U A56C,0.389
20,G31C C66A,0.405
21,C32A G39C,0.166
22,C32A G39U,0.237
23,G31C G38C,0.135
24,G31C G38A,0.0692

row,Variant,self-cleavage
1,G31C C58U,0.339
2,G31C C58G,0.289
3,G31C C58A,0.325
4,G31C C41U,0.138
5,G31C C41A,0.305
6,G31A A45C,0.262
7,G31A A45U,0.185
8,G31A C48A,0.616
9,G31A C75U,0.122
10,C30U U79A,0.293
11,G31A U47C,0.424
12,G31A U47A,0.332
13,G31C G39A,0.0554
14,C32A G54A,0.212
15,C32A G54C,0.356
16,G31U G68C,0.344
17,G31U G68A,0.38
18,G31U G68U,0.427
19,G31A U65G,0.34
20,G31A U65C,0.462
21,G31A U65A,0.366
22,C32A A45G,0.198
23,C32A A45U,0.151
24,G31A C62U,0.554

row,Variant,self-cleavage
1,G31A C62G,0.317
2,G31A C62A,0.445
3,C32A A87C,0.129
4,C32A A42U,0.166
5,G31A G35A,0.0455
6,G31A G76U,0.749
7,G31A G76A,0.606
8,G31A U37C,0.366
9,G31A U37G,0.242
10,C32A C57U,0.318
11,C32A C57A,0.295
12,C32A C57G,0.389
13,C32A G59U,0.095
14,C32A C41G,0
15,C32A C41A,0.089
16,C32A G82U,0.104
17,G31C G53U,0.496
18,G31C G53A,0.572
19,C32A A77C,0.219
20,G31C C44U,0.106
21,G31U U37C,0.415
22,G31U U37A,0.172
23,G31U G76A,0.369
24,G31C A70C,0.266

row,Variant,self-cleavage
1,G31A C66U,0.387
2,G31U A83C,0.0898
3,G31U A83G,0.16
4,G31U A83U,0.0627
5,C32A C85A,0.341
6,C32A C85G,0.252
7,G31A C64A,0.359
8,G31C C33G,0.0852
9,G31C C33A,0.0875
10,G31U U79A,0.148
11,G31U U79G,0.147
12,G31C A56C,0.325
13,G31C A56U,0.305
14,G31U G55A,0.506
15,G31U G55U,0.324
16,G31A A87C,0.385
17,G31A A87G,0.352
18,C32A A71G,0.128
19,G31C G54U,0.332
20,G31U U60A,0.379
21,G31U U60C,0.639
22,G31U U60G,0.212
23,C32A A43C,0.162
24,C32A A43G,0.119

row,Variant,self-cleavage
1,C32A A43U,0.108
2,G31C C75A,0.13
3,G31C C75U,0.111
4,G31A G34U,0.0863
5,C32A C84G,0.111
6,G31C A51U,0.212
7,G31A U72C,0.256
8,G31A U72G,0.145
9,G31A G50A,0.626
10,G31A G50U,0.442
11,C32A C62A,0.151
12,G31C U79G,0
13,G31A C44A,0.192
14,G31A C44G,0.133
15,G31C G80A,0.128
16,G31C G80U,0.0811
17,G31U C41G,0.0437
18,G31U C41U,0.151
19,C32A G81C,0.0475
20,C32A G81U,0.136
21,C32A G81A,0.0779
22,G31A A70C,0.407
23,G31A A70U,0.101
24,C32A G67A,0.211

row,Variant,self-cleavage
1,C32A G67C,0.154
2,G31C G59A,0.483
3,G31C G59C,0.378
4,G31C U60G,0.222
5,G31U A51U,0.525
6,G31U A51G,0.369
7,G31A U46G,0.0852
8,G31A U46C,0.166
9,G31U G53U,0.322
10,G31U G53A,0.289
11,G31U C84U,0.363
12,G31U C84G,0.138
13,G31U C84A,0.146
14,C32A U46A,0.185
15,G31A U69C,0.525
16,G31U G34U,0.0791
17,C30U U72G,0.128
18,G31C C57A,0.282
19,G31C C57G,0.291
20,G31A C58U,0.399
21,G31C G50A,0.343
22,G31C G50U,0.208
23,G31C G67U,0.402
24,G31C G67C,0.272

row,Variant,self-cleavage
1,C32A G38A,0.0665
2,C32A G38C,0.0817
3,G31C U47G,0.383
4,G31C U47C,0.499
5,G31A G81C,0.179
6,G31A G67C,0.513
7,G31C C64G,0.292
8,G31C C64U,0.324
9,G31C C64A,0.148
10,G31C G73U,0.0779
11,G31C G73A,0.0346
12,G31U C36G,0.0906
13,G31U C36A,0.106
14,G31C G68U,0.233
15,G31C G68C,0.138
16,G31U A77G,0.231
17,G31U A77U,0.0665
18,G31U A43C,0.0504
19,G31U A43U,0.149
20,G31C U65A,0.394
21,G31C U65G,0.48
22,G31U G74A,0.151
